{"source": "paper PMC6504684", "about": "(Frontiers in Pharmacology, 2019)", "key": {"[1]": {"molecular_target": "deglycosylated human nAChR α9-ECD (human) (UniProt Q9UGM1)", "assay": "radioligand binding"}, "[2]": {"molecular_target": "glycosylated human nAChR α9-ECD (human) (UniProt Q9UGM1)", "assay": "radioligand binding"}}, "data": [{"substance": "α-conotoxin RgIA, globular isomer, C-terminally amidated (from UniProt P0C1D0 20-32) (peptide)", "values": [{"measurement": "Ki", "setting": "[1]", "result": 2.7, "unit": "µM"}, {"measurement": "Ki", "setting": "[2]", "result": 13.3, "unit": "µM"}]}]}
